Broadly, the % inhibition is the drop in the measured response relative to a control, in per cent. As a reminder, the IC50 is the concentration at which inhibition is half-maximal.

Experimental findings from patent US20170247475A1 (Boehringer Ingelheim, published 2017) are described below.

Positions count from the first letter of the chain named.

One assay concerns the target VEGF. Briefly: cell-based or functional assay.
The target in a further assay is T1, human VEGF-B (human, UniProt P49765-2 22-188, limits assumed).
T1 construct: also called hVEGF-B
T1 sequence (looked up): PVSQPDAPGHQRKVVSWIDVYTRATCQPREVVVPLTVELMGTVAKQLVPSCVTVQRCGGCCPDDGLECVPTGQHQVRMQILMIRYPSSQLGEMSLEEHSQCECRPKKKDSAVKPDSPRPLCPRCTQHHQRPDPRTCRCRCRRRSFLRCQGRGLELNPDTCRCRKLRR
Put plainly: solid phase binding ELISA. As to the method: (§1) Binding to VEGFB, VEGFC, VEGFD and PIGF is assessed via a solid phase binding ELISA. In brief, VEGFB, VEGFC, VEGFD and PIGF (R&D Systems, Minneapolis, Minn., USA) are coated overnight at 4° C. at 1 μg/mL in a 96-well MaxiSorp plate (Nunc, Wiesbaden, Germany). Wells are blocked with a casein solution (1% in PBS). […] As positive controls serial dilutions of the appropriate receptors are taken along and detected with horseradish peroxidase (HRP)-conjugated goat anti-human IgG, Fc specific antibody (Jackson Immuno Research Laboratories Inc., West Grove, Pa., USA) and a subsequent enzymatic reaction in the presence of the substrate TMB (3,3′,5,5′-tetramentylbenzidine) (Pierce, Rockford, Ill., USA).
(In general: ELISA stands for enzyme-linked immunosorbent assay.)

The target in another assay is T2, human VEGF-C (human, UniProt P49767 103-227).
T2 construct: also called hVEGF-C
T2 sequence (looked up): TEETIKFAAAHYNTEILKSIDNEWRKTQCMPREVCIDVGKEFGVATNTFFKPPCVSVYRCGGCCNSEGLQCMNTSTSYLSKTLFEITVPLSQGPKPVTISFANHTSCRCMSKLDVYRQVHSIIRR
Briefly: solid phase binding ELISA. The method, then:
as §1

The target of assay [1] is T3, recombinant mouse VEGF164 (mouse, UniProt Q00731-2 27-190).
T3 construct: biotinylated in the mVEGFR2 AlphaScreen; also called rmVEGF164; mVEGF164
T3 sequence (looked up): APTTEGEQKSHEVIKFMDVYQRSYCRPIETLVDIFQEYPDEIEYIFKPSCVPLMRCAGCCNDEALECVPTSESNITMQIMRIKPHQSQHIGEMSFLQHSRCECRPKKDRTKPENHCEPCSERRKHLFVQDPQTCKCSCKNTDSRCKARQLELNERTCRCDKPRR
Put plainly: binding ELISA, coated rmVEGF164. As to the method: Cross-reactivity to mouse VEGF164 is determined using a binding ELISA. […] Wells are blocked with a casein solution (1% in PBS). […] A mouse VEGF164 reactive mAb is included as positive control.

Assay [2] addresses T4, recombinant human VEGF165 (human, UniProt P15692-4 27-191).
T4 construct: also called hVEGF165; rhVEGF165
Briefly: hVEGF165/hVEGFR1-Fc competition AlphaScreen. As to the method:
Finally, streptavidin donor beads (20 μg/ml) are added and after 1 hour of incubation in the dark, fluorescence is measured on the Envision microplate reader.
Target sequence in this assay (P15692 other isoform, or with tags, fused parts or gaps limits assumed): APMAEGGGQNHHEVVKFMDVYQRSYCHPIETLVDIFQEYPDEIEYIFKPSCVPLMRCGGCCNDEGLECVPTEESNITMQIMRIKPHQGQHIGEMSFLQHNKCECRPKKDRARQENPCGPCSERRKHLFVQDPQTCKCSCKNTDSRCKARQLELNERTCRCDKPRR
Background: Bead proximity is the source of the signal in Alpha formats.

The target of assay [3] is T4, recombinant human VEGF165. Briefly: competition AlphaScreen, blocking of hVEGF165 binding to hVEGFR2-Fc.
Target sequence in this assay (P15692 other isoform, or with tags, fused parts or gaps limits assumed): as above
Assay [4] deals with T4, recombinant human VEGF165. Briefly: AlphaScreen competition, 0.05 nM hVEGF165 and 0.05 nM hVEGFR2-Fc; blocked: hVEGFR2-Fc.
Target sequence in this assay (P15692 other isoform, or with tags, fused parts or gaps limits assumed): as above
In assay [5] the target is T4, recombinant human VEGF165. The assay is described as above. This is another data set of the same source.
Target sequence in this assay (P15692 other isoform, or with tags, fused parts or gaps limits assumed): as above
Assay [6] has as its target T4, recombinant human VEGF165. The description is as above. This is another data set of the same source.
For assay [7], the target named is T4, recombinant human VEGF165. Put plainly: AlphaScreen competition, 0.05 nM hVEGF165 and 0.05 nM hVEGFR1-Fc; blocked: hVEGFR1-Fc.
Target sequence in this assay (P15692 other isoform, or with tags, fused parts or gaps limits assumed): as above
The target in assay [8] is T4, recombinant human VEGF165. The description is as above. The source holds these as a separate data set.
Target sequence in this assay (P15692 other isoform, or with tags, fused parts or gaps limits assumed): as above
The target of assay [9] is T4, recombinant human VEGF165. Briefly: competition AlphaScreen, blocking of hVEGF165 binding to hVEGFR1-Fc.

B1: VEGFBII23B04 (VHH)
VHH: EVQLVESGGGLVQTGDSLRLSCEVSGRTFSSYSMGWFRQAQGKEREFVVAISKGGYKYDSVSLEGRFTISKDNAKNTVYLQINSLKPEDTAVYYCASSRAYGSSRLRLADTYEYWGQGTQVTVSS
notes: also called VEGFBII23B4; VEGFBII23B04 (wt)
For B1, in the assay with VEGF, the “% inhibition, VEGF HUVEC proliferation assay” value was determined as 91%. Further, the “IC50 (nM), VEGF HUVEC proliferation assay” value with VEGF stood at 0.36 nM. The binding result (in the assay with human VEGF-B; with human VEGF-C; in assay [1]) was “no binding (tested: 500 nM-32 pM)” in each case. For the same molecule, the “% inhibition” value in [2] amounted to 41%. Also, the half-maximal inhibitory concentration (IC50) in [2] stood at 0.9 nM.

B2: VEGFBII038 (VHH)
VHH: B1 VHH with E1D, T14P, D16G, E23A, V24A, Q41P, S60A, K71R, K86R, Q120L
notes: also called VEGFBII0038; VEGFBII00038
As to B2, the “IC50 (read off the curve)” value is approximately 0.4 nM in assay [3]; approximately 0.4 nM in assay [4]; approximately 0.5 nM in assay [5]; approximately 0.5 nM in [6]; approximately 0.5 nM in assay [7]; approximately 0.5 nM in assay [8]. The “IC50 (read off the curve)” value in assay [9] was approximately 0.4 nM.
